Data on 3 molecules can be found in PMC9734117, “Selective posttranslational inhibition of CaVβ1-associated voltage-dependent calcium channels with a functionalized nanobody” (Nature Communications, 2022).

What all share (details): partners not purified
One assay concerns the target Cerulean-CaVβ3 ( (human or rat cDNA cloned), UniProt P54284). Kind of assay: FRET or BRET; flow cytometry FRET (flow-FRET) in live HEK293 cells co-transfected with Venus-nanobody and Cerulean-CaVβ; FRET efficiency against free nanobody fitted with a 1:1 binding model; effective dissociation constant (Kd,EFF); cycloheximide 100 μM 2 h before. (In general: In BRET a luciferase serves as donor, and the signal depends on an acceptor being close.)

In another assay the target is Cerulean-CaVβ1 ( (human or rat cDNA cloned), UniProt Q02641-1). Described as above.
Sequence of Cerulean-CaVβ1 (Q02641 whole entry): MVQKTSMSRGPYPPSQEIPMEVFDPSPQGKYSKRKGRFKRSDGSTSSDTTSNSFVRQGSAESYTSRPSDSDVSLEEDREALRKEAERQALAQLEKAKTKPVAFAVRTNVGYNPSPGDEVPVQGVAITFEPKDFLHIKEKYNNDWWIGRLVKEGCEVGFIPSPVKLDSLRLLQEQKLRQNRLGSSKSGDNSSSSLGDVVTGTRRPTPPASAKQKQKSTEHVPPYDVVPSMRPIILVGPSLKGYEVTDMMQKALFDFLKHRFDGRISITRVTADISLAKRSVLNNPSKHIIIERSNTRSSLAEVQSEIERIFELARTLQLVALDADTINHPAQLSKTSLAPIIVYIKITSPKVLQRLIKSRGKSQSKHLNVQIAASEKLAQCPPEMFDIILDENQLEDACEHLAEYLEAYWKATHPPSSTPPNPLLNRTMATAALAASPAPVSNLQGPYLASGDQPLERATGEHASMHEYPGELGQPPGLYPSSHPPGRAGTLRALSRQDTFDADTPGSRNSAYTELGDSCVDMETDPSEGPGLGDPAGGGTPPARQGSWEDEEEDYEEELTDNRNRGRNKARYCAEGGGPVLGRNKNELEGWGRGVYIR
The next assay deals with Cerulean-CaVβ4 ( (human or rat cDNA cloned), UniProt O00305). The assay is described as above.
The next assay addresses Cerulean-CaVβ2 ( (human or rat cDNA cloned), UniProt Q08289). The description is as above.
A further assay has as its target T1, Venus-tagged β1b[NK-CT] (Rattus norvegicus (assumed), UniProt P54283).
T1 construct: CaVβ1b module of the NK domain and the C-terminus; the text says the module was tagged with Cerulean; source: HEK293, co-expressed, in cells
Kind of assay: FRET or BRET; flow cytometry FRET (flow-FRET) in HEK293 cells co-expressing Cerulean-nb.E8 and Venus-tagged β1b modules or β1b/β3 chimeras; 1:1 binding model; effective dissociation constant (Kd,EFF).

Sequence of Cerulean-CaVβ3 (P54284 whole entry): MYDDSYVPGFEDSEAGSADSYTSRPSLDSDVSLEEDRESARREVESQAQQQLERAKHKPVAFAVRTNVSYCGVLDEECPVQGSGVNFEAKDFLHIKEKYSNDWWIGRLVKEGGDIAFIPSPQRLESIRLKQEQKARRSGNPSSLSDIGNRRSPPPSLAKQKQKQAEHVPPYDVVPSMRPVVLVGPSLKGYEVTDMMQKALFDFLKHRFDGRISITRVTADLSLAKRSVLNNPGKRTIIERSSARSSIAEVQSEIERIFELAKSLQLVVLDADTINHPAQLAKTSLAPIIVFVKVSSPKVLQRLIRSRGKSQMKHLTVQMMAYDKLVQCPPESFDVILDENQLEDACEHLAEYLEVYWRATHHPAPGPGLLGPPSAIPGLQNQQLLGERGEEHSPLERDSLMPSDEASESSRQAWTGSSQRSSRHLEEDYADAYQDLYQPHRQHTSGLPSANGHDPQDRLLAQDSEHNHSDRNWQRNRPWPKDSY
Sequence of Cerulean-CaVβ2 (Q08289 whole entry): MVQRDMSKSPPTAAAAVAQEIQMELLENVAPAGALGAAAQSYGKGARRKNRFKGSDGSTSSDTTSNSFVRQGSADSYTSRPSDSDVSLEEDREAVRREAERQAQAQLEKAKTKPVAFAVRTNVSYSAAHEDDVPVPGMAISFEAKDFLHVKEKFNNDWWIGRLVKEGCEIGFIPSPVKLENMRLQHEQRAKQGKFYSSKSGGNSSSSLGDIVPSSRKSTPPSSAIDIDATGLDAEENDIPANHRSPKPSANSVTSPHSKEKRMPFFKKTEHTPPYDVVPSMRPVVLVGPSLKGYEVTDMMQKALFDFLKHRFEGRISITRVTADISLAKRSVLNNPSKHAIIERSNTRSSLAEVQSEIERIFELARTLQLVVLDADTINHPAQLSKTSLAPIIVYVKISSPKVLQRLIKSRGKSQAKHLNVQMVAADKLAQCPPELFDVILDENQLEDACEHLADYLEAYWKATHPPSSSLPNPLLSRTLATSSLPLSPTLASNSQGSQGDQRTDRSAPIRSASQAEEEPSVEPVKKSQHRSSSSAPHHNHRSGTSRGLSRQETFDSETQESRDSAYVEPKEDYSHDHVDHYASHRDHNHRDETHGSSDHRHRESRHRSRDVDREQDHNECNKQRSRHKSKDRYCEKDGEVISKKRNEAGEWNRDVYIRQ
T1 sequence (P54283 whole entry, looked up, the tested form may be a part): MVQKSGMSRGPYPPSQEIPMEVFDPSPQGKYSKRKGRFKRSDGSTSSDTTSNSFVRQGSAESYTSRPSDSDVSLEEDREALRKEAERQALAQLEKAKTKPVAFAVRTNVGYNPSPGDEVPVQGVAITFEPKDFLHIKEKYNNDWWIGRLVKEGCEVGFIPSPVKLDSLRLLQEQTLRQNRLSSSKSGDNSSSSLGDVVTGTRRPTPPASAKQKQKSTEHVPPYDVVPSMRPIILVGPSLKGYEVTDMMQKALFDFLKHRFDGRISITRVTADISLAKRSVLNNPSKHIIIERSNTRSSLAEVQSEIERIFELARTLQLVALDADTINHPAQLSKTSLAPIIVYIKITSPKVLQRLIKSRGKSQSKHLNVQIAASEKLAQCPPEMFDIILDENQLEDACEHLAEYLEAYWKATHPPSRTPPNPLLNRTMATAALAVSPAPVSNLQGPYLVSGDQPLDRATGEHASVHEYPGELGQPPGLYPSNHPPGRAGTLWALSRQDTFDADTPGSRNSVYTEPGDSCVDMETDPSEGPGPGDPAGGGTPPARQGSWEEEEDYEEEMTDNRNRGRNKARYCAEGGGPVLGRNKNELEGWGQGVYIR

B1: Venus-nb.E8 (VHH)
VHH: QVQLQESGGGSVQAGGSLRLSCAASGRTFSKNAMGWFRQAPGKEREFVVAISWSGRNTYYADSVKGRFTISRDNAKNTVDLQMNSLKPEDSAVYYCAVGGDWRVYDISFYYTAHQYEYWGQGTQVTVSS
notes: llama nanobody nb.E8 from a phage display library; The methods say the nanobodies were cloned upstream of a Venus marker (pCDNA3.1), while the name Venus-nb.E8 puts the tag first; also called Venus-tagged nb.E8; source: HEK293, transiently co-transfected, in cells; not shown: Venus, C-terminal, kept
Turning to B1, the binding result was “no binding” with Cerulean-CaVβ3, “binds” with Cerulean-CaVβ1, “no binding” with Cerulean-CaVβ4 and “no binding” with Cerulean-CaVβ2.

B2: Cerulean-nb.E8 (VHH)
VHH: QVQLQESGGGSVQAGGSLRLSCAASGRTFSKNAMGWFRQAPGKEREFVVAISWSGRNTYYADSVKGRFTISRDNAKNTVDLQMNSLKPEDSAVYYCAVGGDWRVYDISFYYTAHQYEYWGQGTQVTVSS
notes: the text of the results says that the CaVβ1 modules carried Cerulean; source: HEK293, co-expressed, in cells
B2: the binding result with Venus-tagged β1b[NK-CT] is reported as “no binding”.

B3: Venus-nb.F3 (VHH)
VHH: QVQLQESGGGLVQAGGSLRLSCVASGRTFSSYAMGWFRQAPGKEREFVAAIDWSGGTASHADSVKGRFTISRDNAKNTVYLQMNSLKPEDTAVYYCAASSYWSRSVDEYDYWGQGTQVTVSS
notes: llama nanobody nb.F3 from a phage display library; The methods say the nanobodies were cloned upstream of a Venus marker (pCDNA3.1), while the name Venus-nb.F3 puts the tag first; also called Venus-tagged nb.F3; source: HEK293, transiently co-transfected, in cells; not shown: Venus, C-terminal, kept
B3: the binding result in the assay with Cerulean-CaVβ3, in the assay with Cerulean-CaVβ1, with Cerulean-CaVβ4 and with Cerulean-CaVβ2 was “binds” each time.
